Substitutions are numbered along the chain they refer to.
T1: huCTLA-4 ECD (his-tag) (human, UniProt P16410 37-162)
T1 construct: also called HX1 hCTLA4 his; HX1 huCTLA4 his; not shown: his-tag
T1 sequence: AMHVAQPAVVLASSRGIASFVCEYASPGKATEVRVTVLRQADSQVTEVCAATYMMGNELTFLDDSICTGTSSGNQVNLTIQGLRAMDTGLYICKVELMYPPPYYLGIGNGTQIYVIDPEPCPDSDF

B1: HuJS007-74 (antibody, V domains shown)
VH: QVQLQESGPGLVKPSQTLSLTCAVSGYSISSGYYWNWIRQPPGKGLEWIGYIGYDGSNYYNPSLKSRVTMSVDTSKNQFSLKLSSVTAVDTAVYYCARNYYSGYFDSWGQGTTVTVSS
VL: DIQMTQSPSSLSASVGDRVTITCRASQNVGTYVAWYQQKPGKVPKPLIYSTSYRYSGVPSRFSGSGSGTDFTLTISSLQPEDVATYFCHQYDTYPLTFGAGTKLELK
notes: 1A5 VH5 + 4B7VL2; constant regions not specified
B2: HuJS007-88 (antibody, V domains shown)
VH: B1 VH with P41F, I49M, S66N
VL: EIVMTQSPATLSVSPGERATLSCRASQNVGTYVAWYQQKPGQAPRPLIYSTSYRYSGIPARFSGSGSGTEFTLTISSLQSEDFAVYYCHQYDTYPLTFGQGTKLEIK
notes: 1A5 VH6 + 4B7VL7; constant regions not specified
B3: huJS007-79 (antibody, human IgG1, kappa, V domains shown)
VH: B1 VH
VL: EIVMTQSPATLSVSPGERATLSCRASQNVGTYVAWYQQKPGQAPRPLIYSTSYRYSGIPARFSGSGSGTEFTLTISSLQSEDFAVYYCHQYDTYPLTFGQGTKLEIKR
B4: HuJS007-87 (antibody, V domains shown)
VH: B1 VH with P41F, I49M, S66N
VL: DIVMTQSPDSLAVSLGERATINCKASQNVGTYVAWYQQKPGQPPKLLIYSTSYRYSGVPDRFSGSGSGTDFTLTISSLQAEDVAVYYCHQYDTYPLTFGQGTKLEIK
notes: 1A5 VH6 + 4B7VL6; constant regions not specified
B5: HuJS007-85 (antibody, V domains shown)
VH: B1 VH with P41F, I49M, S66N
VL: B1 VL with S10F, V43A, D70E, V83F
notes: 1A5 VH6 + 4B7VL4; constant regions not specified
B6: HuJS007-83 (antibody, V domains shown)
VH: B1 VH with P41F, I49M, S66N
VL: B1 VL
notes: 1A5 VH6 + 4B7VL2; constant regions not specified
B7: HuJS007-82 (antibody, V domains shown)
VH: B1 VH with P41F, I49M, S66N
VL: B4 VL with L46P, Y87F, Q100A, I106L
notes: 1A5 VH6 + 4B7VL1; constant regions not specified
B8: HuJS007-86 (antibody, V domains shown)
VH: B1 VH with P41F, I49M, S66N
VL: B1 VL with R24Q, V43A, L73F, V83I
notes: 1A5 VH6 + 4B7VL5; constant regions not specified
B9: HuJS007-52 (antibody, V domains shown)
VH: B1 VH with A23T, G26A, S30T, P41H, Y59N, M70I, V72R, V89A, N99D, V114L
VL: B2 VL
notes: 4B7 VH2-2 + 4B7VL7; constant regions not specified
B10: HuJS007-90 (antibody, V domains shown)
VH: B1 VH with P41F, I49M, S66N
VL: B2 VL with R24K, Y87F
notes: 1A5 VH6 + 4B7VL9; constant regions not specified
B11: HuJS007-108 (antibody, V domains shown)
VH: B1 VH with S30T, Y59N, S66N, N99D
VL: B2 VL with R24K, Y87F
notes: 4B7 VH2-5 + 4B7VL9; constant regions not specified
B12: HuJS007-84 (antibody, V domains shown)
VH: B1 VH with P41F, I49M, S66N
VL: B1 VL with V43A, V83F
notes: 1A5 VH6 + 4B7VL3; constant regions not specified
B13: HuJS007-103 (antibody, V domains shown)
VH: B1 VH with S30T, Y59N, S66N, N99D
VL: B1 VL with S10F, V43A, D70E, V83F
notes: 4B7 VH2-5 + 4B7VL4; constant regions not specified
B14: HuJS007-63 (antibody, V domains shown)
VH: B1 VH with Q16E, A23T, S30T, Y59N, M70I, V72R, V89A, N99D, V114L
VL: B2 VL with R24K, Y87F
notes: 4B7 VH2-3 + 4B7VL9; constant regions not specified
B15: HuJS007-70 (antibody, V domains shown)
VH: B1 VH with G26A, S30T, P41H, Y59N, M70I, V72R, V89A, N99D, V114L
VL: B2 VL
notes: 4B7 VH2-4 + 4B7VL7; constant regions not specified
B16: HuJS007-76 (antibody, V domains shown)
VH: B1 VH
VL: B1 VL with S10F, V43A, D70E, V83F
notes: 1A5 VH5 + 4B7VL4; constant regions not specified
B17: HuJS007-75 (antibody, V domains shown)
VH: B1 VH
VL: B1 VL with V43A, V83F
notes: 1A5 VH5 + 4B7VL3; constant regions not specified
B18: HuJS007-77 (antibody, V domains shown)
VH: B1 VH
VL: B1 VL with R24Q, V43A, L73F, V83I
notes: 1A5 VH5 + 4B7VL5; constant regions not specified
B19: HuJS007-101 (antibody, V domains shown)
VH: B1 VH with S30T, Y59N, S66N, N99D
VL: B1 VL
notes: 4B7 VH2-5 + 4B7VL2; constant regions not specified
B20: HuJS007-104 (antibody, V domains shown)
VH: B1 VH with S30T, Y59N, S66N, N99D
VL: B1 VL with R24Q, V43A, L73F, V83I
notes: 4B7 VH2-5 + 4B7VL5; constant regions not specified
B21: HuJS007-61 (antibody, V domains shown)
VH: B1 VH with Q16E, A23T, S30T, Y59N, M70I, V72R, V89A, N99D, V114L
VL: B2 VL
notes: 4B7 VH2-3 + 4B7VL7; constant regions not specified
B22: HuJS007-102 (antibody, V domains shown)
VH: B1 VH with S30T, Y59N, S66N, N99D
VL: B1 VL with V43A, V83F
notes: 4B7 VH2-5 + 4B7VL3; constant regions not specified
B23: HuJS007-72 (antibody, V domains shown)
VH: B1 VH with G26A, S30T, P41H, Y59N, M70I, V72R, V89A, N99D, V114L
VL: B2 VL with R24K, Y87F
notes: 4B7 VH2-4 + 4B7VL9; constant regions not specified
B24: HuJS007-54 (antibody, V domains shown)
VH: B1 VH with A23T, G26A, S30T, P41H, Y59N, M70I, V72R, V89A, N99D, V114L
VL: B2 VL with R24K, Y87F
notes: 4B7 VH2-2 + 4B7VL9; constant regions not specified
B25: huJS007-106 (antibody, human IgG1, kappa, V domains shown)
VH: B1 VH with S30T, Y59N, S66N, N99D
VL: B3 VL
B26: HuJS007-81 (antibody, V domains shown)
VH: B1 VH
VL: B2 VL with R24K, Y87F
notes: 1A5 VH5 + 4B7VL9; constant regions not specified

Each binder was assayed against T1, huCTLA-4 ECD (his-tag) (assay: ELISA, coated huCTLA-4 his).
Experimental: HX1 hCTLA4 his was diluted with PBS (Hyclone) to 1.0 μg/mL, and the dilution was added to a microplate at 100 μL/well. The plate was let stand in an incubator at 37° C. and coated for 90 min and then washed, and 2% BSA was added to the plate at 200 μL/well. The plate was incubated in an incubator at 37° C. for 90 min and then washed. The humanized anti-CTLA-4 antibodies in Table 4 and the control antibody (ipilimumab) were diluted with a diluent (2% BSA) to 1000 ng/mL. The dilution performed each time was not higher than 10-fold. Then, the humanized antibodies and the control antibody were serially diluted 2.5-fold on a sample dilution plate. All the humanized antibody solutions and the control antibody solution were added to a microplate at 100 μL/well. The plate was incubated in an incubator at 37° C. for 60 min and then washed. An HRP-conjugated goat anti-human antibody IgG (Fc specific) was diluted 5000-fold with 2% BSA, and the dilution was added to the microplate at 100 μL/well. The plate was incubated in an incubator at 37° C. for 60 min and then washed. The color development solution TMB was added at 100 μL/well, during which bubbles were avoided. Color development was allowed at 37° C. for 15 min in the dark and then terminated by adding 2 M hydrochloric acid solution at 100 μL/well, during which bubbles were avoided. Reading (wavelength: 450/620 nm) was done within 10 min using a microplate reader.

| binding result | Binder |
| --- | --- |
| binds | B1 |
| binds | B2 |
| binds | B3 |
| binds | B4 |
| binds | B5 |
| binds | B6 |
| binds | B7 |
| binds | B8 |
| binds | B9 |
| binds | B10 |
| binds | B11 |
| binds | B12 |
| binds | B13 |
| binds | B14 |
| binds | B15 |
| binds | B16 |
| binds | B17 |
| binds | B18 |
| binds | B19 |
| binds | B20 |
| binds | B21 |
| binds | B22 |
| binds | B23 |
| binds | B24 |
| binds | B25 |
| binds | B26 |
